Data reported in patent US6960559B1, “Neurite growth regulatory factors” (University of Zurich, priority 1988, dated 2005).
Where “and” joins values, the source holds several entries; their conditions need not be identical. Equal values may be shown once.

Columns and labels:
[1] = system: C6 plasma membrane associated metalloendoprotease; test: Enzyme assay: cbz-FAF[125I]Y-NH2 degradation by C6 plasma membranes with protease blockers; type: biochemical, rat
Experimental: For most experiments, 70-80% confluent cell layers (1 cm^2 wells, 100 μl MEMα) or 2-5 μg C6 plasma membrane (100 μl MEMα) were used. […] If indicated, cell layers or plasma membrane suspensions were preincubated for 30 min with protease blockers or peptides. NEM or iodacetamide incubations of plasma membranes were performed at pH 8.5. The incubation was stopped by loading a 10 μl aliquot of the incubation medium on a thin layer chromatography plate (10 cm height, Kieselgel 60 F254, MERCK, Germany) and air dried. […] Plates were then air dried and exposed on Kodak X-OMAT films (NY, USA) with an intensifying screen. To identify the degradation products on thin-layer chromatography, we run reference peptides under the same conditions.
(§1) For the quantification of the activity, the reaction was stopped by addition of an equal volume of chloroform. […] Activity is expressed as % radioactivity contained in the aqueous phase. 100% is the sum of the radioactivity of both phases.

cbz-FAF[^125I]Y-NH2 = test: Degradation of cbz-FAF[125I]Y-NH2 by defined proteases and C6 cell fractions; type: biochemical; conditions: 37° C., pH 7.4
Experimental: Preparation of plasma membrane from C6 cells was performed according to (Raper and Kapfhammer, 1990, Neuron 2:21-29) with some modifications. Briefly, C6 cells were cultured in 30 culture dishes (13.5 cm diameter). At confluency, the culture medium was removed and the cell layers were frozen to −20° C. All subsequent manipulations were performed at 4° C.: cell debris were collected using a rubber policeman in 100 ml CMF-Hank's and further homogenized by 10 strokes in a Dounce homogenizer with teflon plunger. A small aliquot of this suspension was stored at −20° C. and used later (homogenate-fraction). The nuclear pellet was obtained by low speed centrifugation (10 min, 1000×g) in a Sorvall S22 rotor and stored at […] A crude vesicular fraction was obtained by centrifugating the nuclear supernatant in a Sorvall S22 rotor (20,000×g, 30 min), and was resuspended in 10 ml CMF-Hank's. After adding 20 ml 2.25 M sucrose in CMF-Hank's, this suspension was loaded on 4×8 ml 2.25 M sucrose in CMF-Hank's and centrifuged at 80,000×g for 1 h in a Beckman SW28 motor. […]
as §1

C6 cells = test: C6 cell spreading on CNS myelin or PLYS with protease inhibitors; type: cell-based, rat; conditions: C6 cells; spreading on PLYS minus spreading on CNS myelin
Experimental: Rat C6, mouse NIH 3T3 and B16 cells were cultured in Dulbecco's modified Eagle's medium (DMEM) supplemented with 10% fetal calf serum (FCS), usually to maximally 70-80% confluency. Cells were harvested with a short trypsin treatment (0.1% in Ca^2+/Mg^2+-free Hank's medium for 90 seconds) stopped by addition of FCS in excess, collected by centrifugation. Cells were resuspended in either DMEM/FCS or defined serum-free medium (MEM) and used for experiments. […]
Myelin from rat spinal cord (CNS) or sciatic nerve (PNS) purified on a discontinuous sucrose gradient as described in Section 6.1.5., was dried overnight onto PLYS coated wells (20 μg protein/well of 100 mm^2 surface). […] Experiments were scored at different time points using a phase contrast microscope equipped with a photocamera. Quantifications were done using a surface integration program; three arbitrary fields were photographed for each well at a magnitude of 80×, at least 25 cells per picture were measured. […] Results are expressed as μ^2 of projected cell surface, or as degree, which was calculated by subtracting from the projected surface value of a spreading cell, the surface value of a completely spheric cell.

| Molecule | Amount necessary to degrade 50% of substrate in 30 min (cbz-FAF[^125I]Y-NH2) | also measured |
| --- | --- | --- |
| soybean trypsin inhibitor: serine protease blocker (protein, UniProt P01070 25-205, looked up) Trypsin inhibitor A: DFVLDNEGNPLENGGTYYILSDITAFGGIRAAPTGNERCPLTVVQSRNELDKGIGTIISSPYRIRFIAEGHPLSLKFDSFAVIMLCVGIPTEWSVVEDLPEGPAVKIGENKDAMDGWFRLERVSDDEFNNYKLVFCPQQAEDDKCGDIGISIDHDDGTRRLVVSKNKPLVVQFQKLDKESL | – | Effect on cbz-FAF[^125I]Y-NH2 degradation by C6 plasma membranes, in words [1]: had no effect |
| tPA: tissue-type plasminogen activator (protein, UniProt P00750 36-562, looked up) Tissue-type plasminogen …: SYQVICRDEKTQMIYQQHQSWLRPVLRSNRVEYCWCNSGRAQCHSVPVKSCSEPRCFNGGTCQQALYFSDFVCQCPEGFAGKCCEIDTRATCYEDQGISYRGTWSTAESGAECTNWNSSALAQKPYSGRRPDAIRLGLGNHNYCRNPDRDSKPWCYVFKAGKYSSEFCSTPACSEGNSDCYFGNGSAYRGTHSLTESGASCLPWNSMILIGKVYTAQNPSAQALGLGKHNYCRNPDGDAKPWCHVLKNRRLTWEYCDVPSCSTCGLRQYSQPQFRIKGGLFADIASHPWQAAIFAKHRRSPGERFLCGGILISSCWILSAAHCFQERFPPHHLTVILGRTYRVVPGEEEQKFEVEKYIVHKEFDDDTYDNDIALLQLKSDSSRCAQESSVVRTVCLPPADLQLPDWTECELSGYGKHEALSPFYSERLKEAHVRLYPSSRCTSQHLLNRTVTDNMLCAGDTRSGGPQANLHDACQGDSGGPLVCLNDGRMTLVGIISWGLGCGQKDVPGVYTKVTNYLDWIRDNMRP | >100 µg | – |
| papain: cysteine protease (protein, UniProt P00784 134-345, looked up) Papain: IPEYVDWRQKGAVTPVKNQGSCGSCWAFSAVVTIEGIIKIRTGNLNEYSEQELLDCDRRSYGCNGGYPWSALQLVAQYGIHYRNTYPYEGVQRYCRSREKGPYAAKTDGVRQVQPYNEGALLYSIANQPVSVVLEAAGKDFQLYRGGIFVGPCGNKVDHAVAAVGYGPNYILIKNSWGTGWGENGYIRIKRGTGNSYGVCGLYTSSFYPVKN | 2 µg and 2.0 µg | – |
| 2-macroglobulin: general protease inhibitor (protein, UniProt P01023 24-1474, looked up) Alpha-2-macroglobulin: SVSGKPQYMVLVPSLLHTETTEKGCVLLSYLNETVTVSASLESVRGNRSLFTDLEAENDVLHCVAFAVPKSSSNEEVMFLTVQVKGPTQEFKKRTTVMVKNEDSLVFVQTDKSIYKPGQTVKFRVVSMDENFHPLNELIPLVYIQDPKGNRIAQWQSFQLEGGLKQFSFPLSSEPFQGSYKVVVQKKSGGRTEHPFTVEEFVLPKFEVQVTVPKIITILEEEMNVSVCGLYTYGKPVPGHVTVSICRKYSDASDCHGEDSQAFCEKFSGQLNSHGCFYQQVKTKVFQLKRKEYEMKLHTEAQIQEEGTVVELTGRQSSEITRTITKLSFVKVDSHFRQGIPFFGQVRLVDGKGVPIPNKVIFIRGNEANYYSNATTDEHGLVQFSINTTNVMGTSLTVRVNYKDRSPCYGYQWVSEEHEEAHHTAYLVFSPSKSFVHLEPMSHELPCGHTQTVQAHYILNGGTLLGLKKLSFYYLIMAKGGIVRTGTHGLLVKQEDMKGHFSISIPVKSDIAPVARLLIYAVLPTGDVIGDSAKYDVENCLANKVDLSFSPSQSLPASHAHLRVTAAPQSVCALRAVDQSVLLMKPDAELSASSVYNLLPEKDLTGFPGPLNDQDNEDCINRHNVYINGITYTPVSSTNEKDMYSFLEDMGLKAFTNSKIRKPKMCPQLQQYEMHGPEGLRVGFYESDVMGRGHARLVHVEEPHTETVRKYFPETWIWDLVVVNSAGVAEVGVTVPDTITEWKAGAFCLSEDAGLGISSTASLRAFQPFFVELTMPYSVIRGEAFTLKATVLNYLPKCIRVSVQLEASPAFLAVPVEKEQAPHCICANGRQTVSWAVTPKSLGNVNFTVSAEALESQELCGTEVPSVPEHGRKDTVIKPLLVEPEGLEKETTFNSLLCPSGGEVSEELSLKLPPNVVEESARASVSVLGDILGSAMQNTQNLLQMPYGCGEQNMVLFAPNIYVLDYLNETQQLTPEIKSKAIGYLNTGYQRQLNYKHYDGSYSTFGERYGRNQGNTWLTAFVLKTFAQARAYIFIDEAHITQALIWLSQRQKDNGCFRSSGSLLNNAIKGGVEDEVTLSAYITIALLEIPLTVTHPVVRNALFCLESAWKTAQEGDHGSHVYTKALLAYAFALAGNQDKRKEVLKSLNEEAVKKDNSVHWERPQKPKAPVGHFYEPQAPSAEVEMTSYVLLAYLTAQPAPTSEDLTSATNIVKWITKQQNAQGGFSSTQDTVVALHALSKYGAATFTRTGKAAQVTIQSSGTFSSKFQVDNNNRLLLQQVSLPELPGEYSMKVTGEGCVYLQTSLKYNILPEKEEFPFALGVQTLPQTCDEPKAHTSFQISLSVSYTGSRSASNMAIVDVKMVSGFIPLKPTVKMLERSNHVSRTEVSSNHVLIYLDKVSNQTLSLFFTVLQDVPVRDLKPAIVKVYDYYETDEFAIAEYNAPCSKDLGNA | – | Inhibition on CNS (%) (C6 cells): 18% |
